Here are results for 2 molecules from paper PMC5518211 (Journal of Molecular Recognition, 2017).

For orientation: koff means a measure of how fast the partners let go of each other. For orientation: kon means the second-order rate constant of association. Usually Kd stands for the constant that tells how readily two partners part at equilibrium. Read a low Kd as tighter binding.

Common to all, as to assay: SPR
For orientation: In SPR one partner is held on a chip, and binding of the other changes the refractive index at the surface.

For test [1], the target named is T1, Calmodulin ( (human brain CaM or …, UniProt P0DP23 1-149)).
The target of test [2] is T1, Calmodulin. This is another data set of the same source.
The target in test [3] is T1, Calmodulin. The source holds these as a separate data set.
The target of test [4] is T1, Calmodulin. The source holds these as a separate data set.

Where two headings read alike, the source gives them in different places. Ends that are not written are not given here.

B1: Peptide corresponding to the CaM-binding region of CaMKIIα (CaMKII 290-309) (peptide)
peptide: LKKFNARRKLKGAILTTMLA
modifications: not fully specified
For B1, in the test with Calmodulin [1], the koff is roughly 1 s⁻¹ and the kon was roughly 1e+09 M⁻¹ s⁻¹. For the same molecule, the dissociation constant (Kd) with Calmodulin [2] was found to be 7.1 nM.

B2: Full-length recombinant human neurogranin with a His-tag at the N-terminus (natural protein)
chain: MDCCTENACSKPDDDILDIPLDDPGANAAAAKIQASFRGHMARKKIKSGERGRKGPGPGGPGGAGVARGGAGGGPSGD
In the case of B2, in the test with Calmodulin [3], binding was put at a Kd of 480 nM, the koff is 0.16 s⁻¹ and the kon turned out to be 340000 M⁻¹ s⁻¹. The same molecule gave a Kd with Calmodulin [4] of 19000 nM.
